Test results published in publication PMC6921968.

Target: SpyCatcher::HBsAg VLP (hepatitis B surface antigen genetically fused to SpyCatcher) (Streptococcus pyogenes | hepatitis B virus)
Assay: covalent (isopeptide) coupling, SDS-PAGE with Coomassie staining and densitometry; SpyCatcher::HBsAg VLP incubated with Pfs25::SpyTag at molar ratio 1.5, 0.5 or 0.1, 3 h to overnight at room temperature, with 10x reaction buffer (40 mM Na2HPO4, 200 mM sodium citrate, pH 6.2); dialysed (100 kDa cut-off) against TBS; conjugation efficiency = % of total SpyCatcher::HBsAg coupled to Pfs25::SpyTag

## Pfs25::SpyTag (Pfs25-SpyTag-Ctag)
  conjugation efficiency (% of total SpyCatcher::HBsAg coupled to Pfs25::SpyTag) at molar ratio 0.1: 10%
  conjugation efficiency (% of total SpyCatcher::HBsAg coupled to Pfs25::SpyTag) at molar ratio 0.5: 50%
  conjugation efficiency (% of total SpyCatcher::HBsAg coupled to Pfs25::SpyTag) at molar ratio 1.5: > 90%
